Experiment [1] deals with T1, I59T human lysozyme (human) (UniProt P61626).
T1 sequence: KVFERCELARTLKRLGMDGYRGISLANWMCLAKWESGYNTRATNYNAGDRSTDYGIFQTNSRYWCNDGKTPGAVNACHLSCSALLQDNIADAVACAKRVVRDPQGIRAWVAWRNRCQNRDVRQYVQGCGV

Experiment [2] has as its target amyloid β peptide Aβ(1–42) (UniProt P05067).

Chain of trypsin-activated α2M (P01023 whole entry, looked up): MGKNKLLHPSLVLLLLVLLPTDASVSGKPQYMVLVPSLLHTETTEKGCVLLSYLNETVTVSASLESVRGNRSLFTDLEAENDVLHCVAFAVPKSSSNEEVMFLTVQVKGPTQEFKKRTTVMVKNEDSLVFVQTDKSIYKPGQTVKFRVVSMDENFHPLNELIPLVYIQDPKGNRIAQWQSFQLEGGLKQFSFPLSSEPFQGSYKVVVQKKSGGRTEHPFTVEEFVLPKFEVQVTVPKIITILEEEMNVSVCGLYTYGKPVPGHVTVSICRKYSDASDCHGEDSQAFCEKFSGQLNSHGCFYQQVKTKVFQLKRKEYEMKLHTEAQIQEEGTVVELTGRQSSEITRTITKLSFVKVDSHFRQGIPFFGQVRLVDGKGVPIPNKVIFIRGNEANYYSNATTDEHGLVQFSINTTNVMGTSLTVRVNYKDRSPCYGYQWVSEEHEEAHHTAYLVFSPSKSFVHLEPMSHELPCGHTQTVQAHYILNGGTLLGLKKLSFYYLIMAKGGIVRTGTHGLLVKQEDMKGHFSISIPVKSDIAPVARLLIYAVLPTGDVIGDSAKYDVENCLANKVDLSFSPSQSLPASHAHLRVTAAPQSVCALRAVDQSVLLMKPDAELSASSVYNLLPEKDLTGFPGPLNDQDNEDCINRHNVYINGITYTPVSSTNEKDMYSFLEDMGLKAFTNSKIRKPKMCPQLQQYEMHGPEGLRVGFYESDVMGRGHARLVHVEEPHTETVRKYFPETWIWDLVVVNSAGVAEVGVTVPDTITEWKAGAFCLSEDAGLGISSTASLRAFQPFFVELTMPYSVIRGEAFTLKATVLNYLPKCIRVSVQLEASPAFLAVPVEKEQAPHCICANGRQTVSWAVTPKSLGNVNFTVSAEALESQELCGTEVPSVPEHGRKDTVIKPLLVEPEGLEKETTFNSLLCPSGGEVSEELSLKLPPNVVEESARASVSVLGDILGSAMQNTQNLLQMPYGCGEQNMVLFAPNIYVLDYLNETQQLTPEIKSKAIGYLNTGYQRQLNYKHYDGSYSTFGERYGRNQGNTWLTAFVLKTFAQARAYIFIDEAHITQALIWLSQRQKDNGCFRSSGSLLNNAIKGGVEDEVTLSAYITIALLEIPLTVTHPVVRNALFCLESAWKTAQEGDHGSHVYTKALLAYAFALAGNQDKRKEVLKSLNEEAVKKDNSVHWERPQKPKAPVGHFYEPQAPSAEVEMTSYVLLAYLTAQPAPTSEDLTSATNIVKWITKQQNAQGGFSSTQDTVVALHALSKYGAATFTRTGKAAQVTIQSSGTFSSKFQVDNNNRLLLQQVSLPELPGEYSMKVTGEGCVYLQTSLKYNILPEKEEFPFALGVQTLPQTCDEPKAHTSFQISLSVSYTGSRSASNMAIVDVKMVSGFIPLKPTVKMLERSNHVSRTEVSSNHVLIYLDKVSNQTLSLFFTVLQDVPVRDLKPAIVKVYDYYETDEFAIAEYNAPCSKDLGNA

In the case of “trypsin-activated α2M (from UniProt P01023 24-1474) (complex)”, in experiment [1], the decrease of ThT fluorescence at the endpoint of I59T lysozyme fibril formation, lysozyme-to-α2M 10:1 was > 90%. In addition, the suppression of ThT signal at the endpoint of Aβ(1–42) fibril formation, Aβ-to-α2M 10:1 in experiment [2] was > 80%.

For the origin of these results see publication PMC3581772.
